The record followed here is US20100056764A1 (Novo Nordisk, published 2010).

Several values for one entry are separate records, joined by “and”; a condition that tells them apart may be missing. Identical values can stand only once. Like-named read-outs stand apart in the source and are kept apart here.

The target in experiment [1] is T1, human NKG2D (hNKG2D) on the cell surface (human, UniProt P26718 1-216).
T1 construct: Carried by BaF/3 cells co-transfected with full-length NKG2D and DAP10, or naturally by human NK, CD8+ T and gamma-delta T cells (PBMC, whole blood); also called cell-surface NKG2D; NKG2D- and DAP10-expressing BaF/3 cells
T1 chain: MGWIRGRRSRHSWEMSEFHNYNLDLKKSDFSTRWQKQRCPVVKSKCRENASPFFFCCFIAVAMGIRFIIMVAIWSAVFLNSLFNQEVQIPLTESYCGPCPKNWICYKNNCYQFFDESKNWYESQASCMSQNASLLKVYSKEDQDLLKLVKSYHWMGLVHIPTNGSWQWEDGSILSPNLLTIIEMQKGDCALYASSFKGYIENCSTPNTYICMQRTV
The experiment in a line: flow cytometry blocking assay on NKG2D/DAP10-expressing BaF/3 cells: pre-incubation with the antibody, then 1 µg MICA-mFc; y axis % remaining MICA-Fc binding. As to the method: (§1) Flow cytometry assays—MICA blockade. […] The cells were then analysed on a B&D FACSArray flow cytometer. The degree of reduction of MICA binding by preincubation was analysed as MFI (mean fluorescence intensity) of binding with pre-incubation in % of binding of MICA without preincubation.
(In general: In flow cytometry, cells or beads pass a laser one at a time.)

For experiment [2], the target named is T1, human NKG2D (hNKG2D) on the cell surface. As to the kind of experiment: cell-based or functional assay.
For experiment [3], the target named is T2, cynomolgous monkey NKG2D on NK, CD8+ T and gamma-delta T cells (cynomolgous monkey (Macaca fascicularis), UniProt P61252 1-216).
T2 construct: whole, on cells; Target on cynomolgous PBMC and whole blood cells; also called cynomologous NKG2D; cyno NKG2D
T2 sequence (looked up): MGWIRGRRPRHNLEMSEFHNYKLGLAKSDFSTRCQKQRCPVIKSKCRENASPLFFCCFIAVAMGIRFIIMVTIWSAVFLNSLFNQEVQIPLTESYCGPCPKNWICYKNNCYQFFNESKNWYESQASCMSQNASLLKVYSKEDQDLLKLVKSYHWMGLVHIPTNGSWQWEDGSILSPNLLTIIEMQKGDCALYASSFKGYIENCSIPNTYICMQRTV
As to the kind of experiment: flow cytometry, NK cells; reference is 21F2 on human cells. As to the method: (§2) Briefly, incubation with antibody was performed at 4° C. for 30 min followed by washing, then directly labelled secondary anti-hIgG4 antibody was added and incubated for 30 min at 4° C. along with antibodies specific for the various cell populations of interest, CD8, CD4, NK and γδ-T cells, then the cells were washed twice in PBS with 2% FCS and the red blood cell lysed. The cells were then analyzed by flow cytometry and binding to the different cell populations assessed.

Experiment [4] deals with T2, cynomolgous monkey NKG2D on NK, CD8+ T …. As to the kind of experiment: flow cytometry, CD8 T cells; reference is 21F2 on human cells. The procedure: as §2
In experiment [5] the target is T1, human NKG2D (hNKG2D) on the cell surface. The experiment in a line: flow cytometry, human NK cells in PBMC, anti-human IgG4 detection. As to the method: as §2
The target is the same in experiment [6]. As to the kind of experiment: flow cytometry, dose-response on NKG2D- and DAP10-expressing BaF/3 cells.
For experiment [7] the target is unchanged. The experiment in a line: flow cytometry, human CD8 T cells in PBMC, anti-human IgG4 detection. As to the method: as §2
Experiment [8] has as its target T2, cynomolgous monkey NKG2D on NK, CD8+ T …. The experiment in a line: flow cytometry, cynomolgous NK cells in PBMC, anti-human IgG4 detection. The procedure: as §2
Experiment [9] has the same target. The experiment in a line: flow cytometry, cynomolgous CD8 T cells in PBMC, anti-human IgG4 detection. As to the method:
as §2

Experiment [10] shares this target. As to the kind of experiment: flow cytometry, gamma-delta T cells (Gd); reference is 21F2 on human cells. As to the method:
as §2

Experiment [11] addresses T1, human NKG2D (hNKG2D) on the cell surface. As to the kind of experiment: flow cytometry, human gamma-delta T cells (Gd) in PBMC, anti-human IgG4 detection. As to the method: as §2
The target in experiment [12] is T2, cynomolgous monkey NKG2D on NK, CD8+ T …. The experiment in a line: flow cytometry, cynomolgous gamma-delta T cells (Gd) in PBMC, anti-human IgG4 detection. The procedure: as §2
In experiment [13] the target is T3, recombinant NKG2D-Fc protein (R&D Systems), immobilized on a Biacore CM5 chip (human, UniProt P26718 78-216).
T3 construct: also called NKG2D-hFc; hFc-NKG2D; not shown: Fc portion of the purchased fusion protein
T3 sequence: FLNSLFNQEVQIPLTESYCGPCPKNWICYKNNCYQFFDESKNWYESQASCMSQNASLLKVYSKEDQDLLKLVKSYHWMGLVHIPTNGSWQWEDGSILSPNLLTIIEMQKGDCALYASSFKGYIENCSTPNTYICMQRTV
As to the kind of experiment: SPR (Biacore), NKG2D-Fc immobilized on CM5 chip at 400 RU, antibody in solution, Langmuir fit. As to the method:
Surface plasmon resonance measurements were performed on a Biacore 1000 upgrade apparatus (Biacore GE Healthcare; Biacore Upgrade CA0396) at 25° C. In all Biacore experiments HBS-EP buffer (Biacore GE Healthcare; BR-1001-88) served as running buffer and sensorgrams were analyzed with Biaevaluation 4.1 software.
Protein immobilisation. […] Recombinant NKG2D-Fc proteins were immobilized covalently to carboxyl groups in the dextran layer on a Sensor Chip CM5 (Biacore GE Healthcare; BR-1000-14). The sensor chip surface was activated with EDC/NHS (N-ethyl-N′-(3-dimethylaminopropyl)carbodiimidehydrochloride and N-hydroxysuccinimide (Biacore GE Healthcare; BR-1000-50)). […] Deactivation of the remaining activated groups was performed using 100 mM ethanolamine pH 8 (Biacore GE Healthcare; BR-1000-50).
[…] The resulting sensorgrams were analysed by global fitting using the Langmuir model. The dissociation constant (KD) was calculated as KD=kd/ka.

Experiment [14] addresses T1, human NKG2D (hNKG2D) on the cell surface. The experiment in a line: flow cytometry, NKG2D/DAP10 BaF/3 cells pre-incubated with antibody, then 1 µg MICA-mFc (competitor). The procedure: as §1
Experiment [15] has the same target. The experiment is described as above. The procedure: as §1

B1: MS, fully human anti-hNKG2D monoclonal antibody, recombinantly expressed as IgG4 isotype (antibody, V domains shown)
VH: QVHLQESGPGLVKPSETLSLTCTVSDDSISSYYWSWIRQPPGKGLEWIGHISYSGSANYNPSLKSRVTISVDTSKNQFSLKLSSVTAADTAVYYCANWDDAFNIWGQGTMVTVSS
VL: not shown
notes: also called MS IgG4; MS (IgG4)
Regarding B1, in [1], the “IC50 (read off the curve)” value was ~2 pM.

B2: 21F2, fully human anti-hNKG2D monoclonal antibody, recombinantly expressed as IgG4 isotype (antibody, V domains shown)
VH: EVQLVQSGAEVKEPGESLKISCKNSGYSFTNYWVGWVRQMPGKGLEWMGIIYPGDSDTRYSPSFQGQVTISADKSINTAYLQWSSLKASDTAMYYCGRLTMFRGIIIGYFDYWGQGTLVTVSS
VL: EIVLTQSPATLSLSPGERATLSCRASQSVSSYLAWYQQKPGQAPRLLIYDASNRATGIPARFSGSGSGTDFTLTISSLEPEDFAVYYCQQRSNWPWTFGQGTKVEIKR
notes: also called 21F2 IgG4; 21F2 (IgG4)
For the molecule B2, the “EC50 (µg/ml), inhibition of NK cell killing of ULPB3-expressing target cells (51Cr release)” value in [2] was determined as 0.021 µg/mL. The “relative EC50, cynomolgous to human cells (%)” value is 66.7% in [3], 71.9% in experiment [4] and 81.1% in experiment [10]. The EC50 was 0.0712 µg/mL in experiment [5]; 0.033 µg/mL and 0.023 nM in experiment [6]; 0.0605 µg/mL in experiment [7]; 0.0475 µg/mL in [8]; 0.0435 µg/mL in experiment [9]; 0.0572 µg/mL in [11]. Moreover, the EC50 in experiment [12] worked out at 0.0464 µg/mL. For the same molecule, the Kd in [13] worked out at 77.9 pM. For the same molecule, the koff in experiment [13] turned out to be 0.000144 s⁻¹. Besides, the kon in experiment [13] amounted to 1.85e+06 M⁻¹ s⁻¹. The IC50 in experiment [14] amounted to 4.8 pM; in experiment [15], 0.0063 µg/mL. The “Full blockade of 1 µg MICA-Fc (antibody concentration)” value in experiment [15] was 0.16 µg/mL. In experiment [1], the “IC50 (read off the curve)” value is ~4 pM.

Usually EC50 stands for the concentration needed to bring the measured effect to its halfway point. By Kd is commonly meant a measure of binding affinity in units of concentration. Usually koff stands for the rate constant with which the complex falls apart. The kon is a measure of how fast the partners come together. The IC50 is the point on the concentration scale where inhibition reaches its midpoint.
